[ ]: non-standard residue; d: D form. pY = N[C@@H](Cc1ccc(OP(=O)(O)O)cc1)C(=O)O

The values that follow come from US20070010428A1, “Inhibitors of signal transduction and activator of transcription 3” (priority 2004, published 2007).

The target in assay [1] is Stat3 (as in the EMSA of Table 1), P40763. Nature of the assay: EMSA: inhibition of Stat3 dimerization and DNA binding, average of two determinations. A general note: A gel shift assay detects complexes by their altered migration in electrophoresis.
For assay [2], the target named is full length Stat3, P40763. Nature of the assay: fluorescence polarization, full length Stat3 titrated into the FP probe. For orientation: In fluorescence polarisation assays a small probe gives low polarisation when free and higher when bound to something large.
Sequence of full length Stat3, P40763 (P40763 whole entry): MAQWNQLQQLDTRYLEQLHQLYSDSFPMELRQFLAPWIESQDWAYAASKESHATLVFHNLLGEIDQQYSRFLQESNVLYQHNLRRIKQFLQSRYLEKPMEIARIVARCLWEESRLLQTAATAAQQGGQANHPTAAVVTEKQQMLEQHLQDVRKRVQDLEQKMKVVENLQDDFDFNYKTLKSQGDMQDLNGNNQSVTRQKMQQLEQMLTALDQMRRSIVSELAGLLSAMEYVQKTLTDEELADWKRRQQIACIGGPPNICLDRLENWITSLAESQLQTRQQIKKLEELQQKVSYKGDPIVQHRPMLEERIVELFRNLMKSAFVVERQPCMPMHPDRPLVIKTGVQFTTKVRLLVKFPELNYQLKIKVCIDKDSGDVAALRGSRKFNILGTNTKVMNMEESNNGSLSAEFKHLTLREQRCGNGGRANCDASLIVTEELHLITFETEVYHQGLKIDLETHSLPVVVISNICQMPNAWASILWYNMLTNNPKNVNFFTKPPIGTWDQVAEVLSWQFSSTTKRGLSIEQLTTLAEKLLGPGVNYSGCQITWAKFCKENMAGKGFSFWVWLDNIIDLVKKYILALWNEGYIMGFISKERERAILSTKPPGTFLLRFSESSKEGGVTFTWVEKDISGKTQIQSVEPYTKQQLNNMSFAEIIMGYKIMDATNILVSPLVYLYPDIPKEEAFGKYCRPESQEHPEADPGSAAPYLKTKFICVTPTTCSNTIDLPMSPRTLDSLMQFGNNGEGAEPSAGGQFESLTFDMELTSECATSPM

Sequence of Stat3 (as in the EMSA of Table 1), P40763 (P40763 whole entry): as above

B1: Ac-Y(p)INQSV-NH2 (EGFR Tyr 1068 hexapeptide) (peptide)
chain: YINQSV
modifications: not checked
One may read the IC50 as the concentration at which inhibition is half-maximal. Molecule B1 returned an IC50 in assay [1] of 30 µM.

B2: Ac-pTyr-Leu-Lys-Thr-Lys-Phe-NH2 (peptide)
chain: Ac-[pY]LKTKF-NH2
SMILES: CC(=O)N[C@@H](Cc1ccc(OP(=O)(O)O)cc1)C(=O)N[C@@H](CC(C)C)C(=O)N[C@@H](CCCCN)C(=O)N[C@H](C(=O)N[C@@H](CCCCN)C(=O)N[C@@H](Cc1ccccc1)C(N)=O)[C@@H](C)O
In turn, B2 returned an IC50 in assay [1] of 20 µM.

B3: fluorescein-5-carboxyl-Ala-pTyr-Leu-Pro-Gln-Thr-Val-NH2 (peptide)
chain: {fluorescein‑5‑carboxyl}-A[pY]LPQTV-NH2
What is called Kd is the concentration at which binding is half-saturated. A high value points to a looser complex. As to B3, the Kd in assay [2] worked out at 0.05 µM.

B4: Ac-Y(p)HNQPL-NH2 (EGFR Tyr 1086 hexapeptide) (peptide)
chain: YHNQPL
modifications: not checked
In the case of B4, the IC50 in assay [1] is 150 µM.
